Substrate: OC[C@H]1OC(O)[C@H](O)[C@@H](O)[C@@H]1O
Assay: purified protein
Format: biochemical, Aspergillus niger
Conditions: apparent Km of the whole free GOx/HRP cascade, not of isolated GOx, authors call the kinetics governed by HRP, glucose 50-150 µM, dissolved O2, constant TMB, 0.1 M acetate pH 4.5, room temperature

B1: glucose oxidase (GOx) (Aspergillus niger) (protein)
chain: LPHYIRSNGIEASLLTDPKDVSGRTVDYIIAGGGLTGLTTAARLTENPNISVLVIESGSYESDRGPIIEDLNAYGDIFGSSVDHAYETVELATNNQTALIRSGNGLGGSTLVNGGTWTRPHKAQVDSWETVFGNEGWNWDNVAAYSLQAERARAPNAKQIAAGHYFNASCHGVNGTVHAGPRDTGDDYSPIVKALMSAVEDRGVPTKKDFGCGDPHGVSMFPNTLHEDQVRSDAAREWLLPNYQRPNLQVLTGQYVGKVLLSQNGTTPRAVGVEFGTHKGNTHNVYAKHEVLLAAGSAVSPTILEYSGIGMKSILEPLGIDTVVDLPVGLNLQDQTTATVRSRITSAGAGQGQAAWFATFNETFGDYSEKAHELLNTKLEQWAEEAVARGGFHNTTALLIQYENYRDWIVNHNVAYSELFLDTAGVASFDVWDLLPFTRGYVHILDKDPYLHHFAYDPQYFLNELDLLGQAAATQLARNISNSGAMQTYFAGETIPGDNLAYDADLSAWTEYIPYHFRPNYHGVGTCSMMPKEMGGVVDNAARVYGVQGLRVIDGSIPPTQMSSHVMTVFYAMALKISDAILEDYASMQ
notes: commercial native enzyme, type VIII (Merck/Sigma Aldrich), free in solution, ~160 kDa, FAD-containing
Work on B1 yielded a Km of 275 µM and a Vmax of 696 µM/min/mg.

— publication PMC12300839, “Noncovalently Immobilized Glucose Oxidase/Horseradish Peroxidase Cascade on Polyamide Supports for Eco-Friendly Polyaniline Synthesis” (Molecules, 2025)
